Conditions: mouse, in vivo, iv, 12 mg/kg
Experimental: CD1 mice were injected intravenously, by a single bolus, of 5 mg/kg conjugates (antibody-based dose; 3 mice per group). Plasma samples were collected at several time points up to 4 weeks. The plasma samples were analyzed for antibody concentration and for conjugate concentration using ELISA. For antibody ELISA, the plasma samples were added to microtiter plates containing coated, immobilized goat-anti-human IgG (H+L) antibody, washed, and detected using horseradish peroxidase-conjugated goat-anti-human IgG (Fe) antibody. For conjugate concentration, the plasma samples were added to microtiter plates containing coated, immobilized goat-anti-human IgG (H+L) antibody, washed, and detected using biotinylated anti-maytansine antibody and alkaline phosphatase-conjugated streptavidin.

B1: unconjugated antibody: unconjugated humanized C242 antibody, binds the CanAg antigen (antibody, chains of the INN, looked up, V domains shown)
VH: QVQLVQSGAEVKKPGETVKISCKASDYTFTYYGMNWVKQAPGQGLKWMGWIDTTTGEPTYAQKFQGRIAFSLETSASTAYLQIKSLKSEDTATYFCARRGPYNWYFDVWGQGTTVTVSS
VL: DIVMTQSPLSVPVTPGEPVSISCRSSKSLLHSNGNTYLYWFLQRPGQSPQLLIYRMSNLVSGVPDRFSGSGSGTAFTLRISRVEAEDVGVYYCLQHLEYPFTFGPGTKLELK
- area under the curve (AUC): 38798 µg·h/mL

Source: US9150649B2, “Potent conjugates and hydrophilic linkers” (priority 2008, dated 2015)
